Experimental data: US6984719B1, “Peptide antagonists of prostaglandin F2α receptor” (Hospital Sainte-Justine, priority 1998, dated 2006)
Square brackets hold non-standard residues; d marks the D form. Ends that are not written are not given here.

Tests used:
[1] = molecular target: T1, FP receptor (Sus scrofa, UniProt C6GAG8); test: Porcine eyecup model of ex vivo vasomotricity assay, PGF2α-induced constriction of retinal microvessels; design: species or system pig; settings: for % Vasomotor response (of max constriction): compared to maximal constriction without peptide; for change of inhibitory activity of the peptide variant relative to the parent peptide: peptides at 100 μM, porcine retinal vasomotricity assay, structure-activity summary
T1 construct: from tissue; host or cells: eyecup / retinal microvessels of newborn pigs pretreated with ibuprofen
From the text: In order to see if the peptides could inhibit FP function using an ex vivo model, we chose porcine eyecup model, an ex vivo assay of vascular constriction in porcine retinas which we previously described and validated (Li et al., 1996 J. Pharmacol. Expt. Therapeut. 278: 370–377; Li et al., 1997 Am. J. Physiol. 273: R1283–90; Abran et al., 1997 Am. J. Physiol. 272: R995–1001). Since FP receptor densities in newborn vasculature are minimal due to down regulation by high levels of circulating prostaglandins in the perinatal period, the newborn pigs were treated with a prostaglandin synthetase blocker, ibuprofen (30 mg/Kg of bodyweight/8 h for 24 h) to increase the density of the receptors as well as their vasomotor effects. By inhibiting circulating prostaglandins, we were able to show potent inhibition of FP receptor-mediated second messenger synthesis as well as FP-mediated vascular constriction in this eyecup model.
To prepare eyecups, a circular incision was made 3–4 mm posterior to ora serrata to remove the […] segment and vitreous body with minimal handling of the retina. The remaining eyecup was fixed with pins to a wax base in a 20 ml tissue bath containing 20 ml of Kreb's buffer (pH 7.35–7.45), protease inhibitors, leupetin and aprotinin (10 μg/ml each), and equilibrated with 21% oxygen and 5% carbon dioxide at 37° C. The preparations were allowed to stabilize for 30 min. Peptides at 100 μM were added and incubation was continued for 30 min before the addition of PGF2α.
Cumulative concentration-responses of PGF2α, and TxA2 mimetic, U46619, (10^−10 to 10^−5 M) curves were constructed separately. To assess the reversibility of the antagonists, the eyecups were thoroughly washed (which would wash away the peptide) with incubation medium and concentration response curves for PGF2α were determined. The outer vessel diameter was recorded with a video camera mounted on a dissecting microscope (Zeiss M 400™) and the responses were quantified by a digital image analyzer (Sigma Scan Software, Jandel Scientific, Corte Madera, Calif.). Vascular diameter was recorded before and 10 min following the topical application of the agent.
^1Percent vasomotor response in the presence of 100 μM peptide is calculated as percent change in average vascular diameter produced by 10^−7 M PGF2α to the eyecup in the presence of the peptide compared to maximal constriction observed in the absence of the peptide.
^2Percent inhibition produced by each peptide is calculated as (100-percent vasomotor response).
Small letters indicate L-amino acids and capital letters indicate D-amino acids. I=isoleucine; L=leucine; G=glycine; H=histidine; R=Arginine; D=Aspartic acid; Y=Tyrosine; K=Lysine; A=Alanine; W=Tryptophan; E=Glutamic acid; F=Phenyl alanine; Q=Glutamine; N=Aspargine; P=Proline; S=Serine; X=Cyclohexyl alanine. Peptides were dissolved in DMSO freshly just before the experiment as 10 mM stocks and added to the eye cups 30 min before the addition of 10^−7 M PGF2α.
These peptides incorporate L- to D-amino acid changes, deletions, subtle variations in aromaticity, hydrogen bond donor status as opposed to ionic interactions and hydrophobicity.

[2] = molecular target: T2, human FP receptor (Homo sapiens, UniProt P43088); test: PGF2α-induced phosphoinositide hydrolysis (inositol phosphate synthesis) in HEK293 cells expressing FP receptor; format: cell-based; settings: HEK293 cells stably expressing human FP receptor; 1 μM PGF2α; read-out: half maximal inhibitory concentration, inositol phosphate synthesis
T2 construct: expressed in transfected cells
Experimental: Both PCP-8 and -10 were tested in HEK293 cells expressing the human FP receptor. For this purpose, HEK 293 cells stably expressing human FP receptor were plated in 12-well plates in DMEM medium containing 10% fetal bovine serum, penicillin (10 U/ml) and streptomycin (10 μg/ml) and cultured in a humidified atmosphere containing 5% CO2 at 37° C. After the wells were 80% confluent, the cells were labeled with 2 μCi/ml of [^3H]-myo inositol overnight. Next day, the cells were washed once with PBS, and incubated in 0.5 ml of Kreb's buffer containing 10 mM LiCl and indicated concentrations of PCP peptides for 30 min. PGF2α at 1 μM was added to the cells and the incubation was carried out for an additional 30 min. The cells were solubilized with 0.1 N NaOH for 10 min and neutralized with 0.1 N formic acid. The lysates were collected and 1 ml each of methanol and chloroform were sequentially added and vortexed briefly. After centrifugation to separate the phases, inositol phosphates were separated by ion exchange chromatography as described below (Berridge, M. J. et al., 1983, Biochem. J. 212:473–482).
Briefly, the medium was discarded and the IP3 synthesis was stopped by adding 0.6 ml ice-cold methanol. The cells were scraped and collected into polypropylene tubes. Distilled water (0.5 ml) and chloroform (0.6 ml) were added and vigorously vortexed for 2 min. The phases were separated by centrifugation at 6000×g for 10 min. The aqueous phase was applied to AG-1X-8™ (Formate form) anion exchange columns (1 ml bed volume) and free inositol was eluted with 10 ml of water, followed by 60 mM ammonium formate in 0.1 M formic acid. Then, the inositol phosphates were eluted with 5 ml of 1.2 M ammonium formate in 0.1 M formic acid. After adding 3 volumes of scintillation cocktail (Optiphase-HiSafe III), the eluates were counted by scintillation spectrophotometry.
Data are expressed as fold stimulation of inositol phosphate synthesis by 1 μM PGF2α compared to the unstimulated controls. […] The half maximal inhibitory concentrations for both PCP-8 and -10 were slightly less than 100 μM.

[3] = 100 μM peptide, 10^−7 M PGF2α, calculated as 100-percent vasomotor response

T1 sequence (C6GAG8 1-362): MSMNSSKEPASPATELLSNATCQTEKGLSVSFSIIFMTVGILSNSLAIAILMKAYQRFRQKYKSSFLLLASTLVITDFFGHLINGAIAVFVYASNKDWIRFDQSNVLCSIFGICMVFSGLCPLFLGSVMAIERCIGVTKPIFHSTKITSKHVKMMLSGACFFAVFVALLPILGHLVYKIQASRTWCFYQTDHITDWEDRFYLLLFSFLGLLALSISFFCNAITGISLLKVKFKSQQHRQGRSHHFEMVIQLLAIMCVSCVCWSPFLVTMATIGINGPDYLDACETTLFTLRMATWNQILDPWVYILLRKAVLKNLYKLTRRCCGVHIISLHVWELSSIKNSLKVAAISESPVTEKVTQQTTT
T2 sequence (P43088 whole entry): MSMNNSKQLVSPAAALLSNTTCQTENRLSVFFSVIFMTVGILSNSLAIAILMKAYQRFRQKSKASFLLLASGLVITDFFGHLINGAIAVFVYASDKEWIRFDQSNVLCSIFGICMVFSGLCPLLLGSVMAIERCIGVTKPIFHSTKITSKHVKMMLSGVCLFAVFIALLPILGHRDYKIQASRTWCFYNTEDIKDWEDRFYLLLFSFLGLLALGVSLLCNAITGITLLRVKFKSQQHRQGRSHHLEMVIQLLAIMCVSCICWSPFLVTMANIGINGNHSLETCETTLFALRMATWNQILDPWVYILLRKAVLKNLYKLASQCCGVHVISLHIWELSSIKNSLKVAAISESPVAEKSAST

Substance | % inhibition of maximal response [1, 3] [%] | % Vasomotor response (of max constriction) ([1]; 100 μM peptide, 10^−7 M PGF2α) [%] | change of inhibitory activity of the peptide variant relative to the parent peptide [1] | IC50 [2] [µM] | Emax ([1]; 100 μM peptide, 10^−7 M PGF2α, calculated as 100-percent vasomotor response, read-out: % inhibition of maximal response) [%]
ILAHRDYK (Peptide antagonist derived from the sequence of the Prostaglandin F2-alpha receptor.) [PCP-13.7] | 76.2 | 23.8 | does not change the activity | – | –
ILGFRDYK (Peptide antagonist derived from the sequence of the Prostaglandin F2-alpha receptor.) [PCP-13.11] | 87.0 | 13.0 | did not result in significant reduction of peptide inhibitory potency | – | –
ILGHQDYK (Peptide antagonist derived from the sequence of the Prostaglandin F2-alpha receptor.) [PCP-13.18] | 70.0 | 30.0 | affected the activity of PCP-13 moderately | – | –
ILGHRDYK (Peptide antagonist derived from the sequence of the Prostaglandin F2-alpha receptor.) [PCP-13] | 80.0 | 20.0 | increased the inhibitory potency dramatically | – | –
ILGHRNYK (Peptide antagonist derived from the sequence of the Prostaglandin F2-alpha receptor.) [PCP-13.14] | 59.7 | 40.3 | moderate loss of activity | – | –
ILGWRDYK (Peptide antagonist derived from the sequence of the Prostaglandin F2-alpha receptor.) [PCP-13.22] | 83.4 | 16.6 | did not result in significant reduction of peptide inhibitory potency | – | –
PCP-11: PCP-8 with the N-terminal hydrophobic dipeptide sequence removed (GHRDYK) | – | – | significant reduction in the inhibitory action | – | –
PCP-12: PCP-10 with the N-terminal hydrophobic dipeptide sequence removed (DRFYLL) | – | – | significant reduction in the inhibitory action | – | –
PCP-13.10: PCP-13 with aromatic residue Y substituted with E ([dI][dL]G[dH][dR][dD][dE][dK]) | – | – | completely abolished the inhibitory potency | – | –
PCP-13.23: PCP-13 with H changed to Y ([dI][dL]G[dY][dR][dD][dY][dK]) | – | – | significant reduction of peptide inhibitory potency | – | –
WEDRFYLL [PCP-10, wedrfyll] | – | 20.0 | – | < 100 | 80

Now from value to substance:

% inhibition of maximal response [1, 3] [%] | % Vasomotor response (of max constriction) ([1]; 100 μM peptide, 10^−7 M PGF2α) [%] | change of inhibitory activity of the peptide variant relative to the parent peptide [1] | IC50 [2] [µM] | Emax ([1]; 100 μM peptide, 10^−7 M PGF2α, calculated as 100-percent vasomotor response, read-out: % inhibition of maximal response) [%] | Substance
50.4 | 49.6 | moderate gain of activity | – | – | ILGHRDY-amide ([dI][dL]G[dH][dR][dD][dY]-NH2) [PCP-13.20]
53.8 | 46.2 | moderate gain of activity | – | – | ILGHRDYK-amide ([dI][dL]G[dH][dR][dD][dY][dK]-NH2) [PCP-13.21]
53.2 | 46.8 | loss of activity | – | – | ILaHRDYK ([dI][dL]A[dH][dR][dD][dY][dK]; not fully specified (residue 3); printed as ILaHRDYK) [PCP-13.8]
– | – | complete loss of activity | – | – | PCP-13.9: PCP-13 with terminal lysine substituted with W ([dI][dL]G[dH][dR][dD][dY][dW])
– | – | loss of half of the inhibitory activity | – | – | PCP-13.12: PCP-13 with D changed to E ([dI][dL]G[dH][dR][dE][dY][dK])
– | – | complete loss of activity | – | – | PCP-13.15: PCP-13 with deletion of terminal lysine ([dI][dL]G[dH][dR][dD][dY])
– | – | loss of activity | – | – | PCP-13.16: PCP-13 with glycine changed to proline ([dI][dL][dP][dH][dR][dD][dY][dK])
– | – | loss of activity | – | – | PCP-13.17: PCP-13 with the glycine residue deleted ([dI][dL][dH][dR][dD][dY][dK])
– | – | drastic loss of activity | – | – | PCP-13.19: PCP-13 with a serine substitution of D ([dI][dL]G[dH][dR][dS][dY][dK])
88.1 | 11.9 | – | – | – | SNVLCSIF (Peptide antagonist derived from the sequence of the Prostaglandin F2-alpha receptor.) [PCP-15]
64.0 | 36.0 | – | – | – | YQDRFYLL (Peptide antagonist derived from the sequence of the Prostaglandin F2-alpha receptor.) [PCP-14]
